Test results from the nanobody polyreactivity screen of Harvey et al. (2022).

Experiment: yeast display, Sf9 membrane polyspecificity reagent, FACS + sequencing; frameworks hold sequencing errors
Outline: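 After 36–48 hours of galactose induction, yeast (Saccharomyces cerevisiae BJ5465) displaying a synthetic nanobody library were stained at 4 °C for 1 hour with 10% biotinylated, detergent-solubilized Sf9 membrane reagent. Streptavidin microbeads enriched the stained cells before FACS sorting into low and high (top ~1%) gates on anti-HA and streptavidin fluorescence. Each clone's polyreactivity label reflects its gate of origin.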

| Sequence | polyreactivity (PSR sort gate) |
| --- | --- |
| QVQLVESGGGLVQAGGSLRLSCAASGLILVYYAMGWYRQAPGKERELVAAITPGGSTKYAESVKGRFTISRDNAKNTVYLQMNSLKPEDTAVYYCNALSGPYWYYVYQSHQDDYWGQGSQVTVSS | low polyreactivity |
| QVQLVESGGGLVQAGGSLRLSCAASGLILYTYAMGWYRQAPGKERELVAALNSGGRTYSADSVKGRFTISRDNAKNTVYLQMNSLKPEDTAVYYCAADYGSRVRGFNYWGQGTQVTVSS | low polyreactivity |
| QVQLVESGGGLVQAGGSLRLSCAASGLINYYYAMGWYRQAPGKERELVAAISGSSGASTYYADSVKGRFTISRDNAKNTVYLQMNSLKPEDTAVYYCATPVASVTGYDYWGQGTQVTVSS | low polyreactivity |
| QVQLVESGGGLVQAGGSLRLSCAASGLISTPNAMGWSRQAPGKERELVASISSRGGSTYYADSVKGRFTISRDNAKNTVYLQMNSLKPEDTAVYYCAADAYRDFYYEYYYWGQGSQVTVSS | low polyreactivity |
| QVQLVESGGGLVQAGGSLRLSCAASGLISYHYAMGWYRQAPGKERELVASISYTGGSTFYADSVKGRFTISRDNAKNTVYFQMNSLKPEDTAVYYCAAYRIWRPSYYYWGQGTQVTVSS | high polyreactivity |
| QVQLVESGGGLVQAGGSLRLSCAASGLIYFYAMGWYRQAPGKERELVAAISSSGGRTYYADSVKGRFTISRDNAKNTVYLQMNSLKPEDTAVYYCAVVSSHYIGPGRNGYDYWGQGTQVTVSS | high polyreactivity |
| QVQLVESGGGLVQAGGSLRLSCAASGLMFRHYAMGWYRPAPGKERELVAAIDYSGGSTYYADSVKGRFTISRDNAKNTVYLQMNCLKPEDTAVYYCNRYHRLRVVPSRFVKYDYWGQGTQVTVSS | low polyreactivity |
| QVQLVESGGGLVQAGGSLRLSCAASGLNFRKYAMGWYRQAPGKERELVAGISSGGSTYYADSVKGRFTISRDNAKNTVYLQMNSLKPEDTAVYYCAAKALRTMYYWGQGTQVTVSS | high polyreactivity |
| QVQLVESGGGLVQAGGSLRLSCAASGLNFYYYTMGWYREAPGKERELVATISRSGTSTNYADSVKGRFTISRDNAKNTVYLQMNSLKPEDTAVYYCAAVLRWRDLFSEYYYLGQGTQVTVSS | high polyreactivity |
| QVQLVESGGGLVQAGGSLRLSCAASGLSFYLYAMGWYRQAPGKERELVAAISSSGSSTYYADSVKGRFTISRDNAKNTVYLQMNSLKPEDTAVYYCNARGTRASRYDYWGQGTQVTVSS | high polyreactivity |
| QVQLVESGGGLVQAGGSLRLSCAASGLTFAFYAMGWYRQAPGKEREFVARIRTSAITYYADSVKGRFTISRDNAKTTVYLQMNSLKPEDTAVYYCAVSWNKLRDSSLYAYYYWGQGTQVTVSS | high polyreactivity |
| QVQLVESGGGLVQAGGSLRLSCAASGLTFASYAMGWYRQAPGKERELVAVISASGGSTYYADSVKGRFTISRDNAKNPVYLQMNSLKPEDTAVYYCAARHSLYGYWGQGTLVTVSS | high polyreactivity |
| QVQLVESGGGLVQAGGSLRLSCAASGLTFAYYAMGWYRQAPGKERELVAAISLSGGSTYYADSVKGRFTISRDNAKNTVYLQMNSLKPEDTAVYYCNKGSYYWWDPGSTYIDDYWGQGTQVTVSS | low polyreactivity |
| QVQLVESGGGLVQAGGSLRLSCAASGLTFDAYAMGWYRHAPRKERELVAAISWSGGSTYYADSVKGRFTISRDNAKNTVYLQMNSLKPEDTAVYYSNARYAQFRFWGQGTQVTVSS | high polyreactivity |
| QVQLVESGGGLVQAGGSLRLSCAASGLTFDGNAMGWYRQAPGKERELVATIRSGGGTNYADSVKGRFTISRDNAKNTVYLQMNSLKPEDTAVYYCNADYRSVYSPVQYPGEYYYWGQGTQVTVSS | low polyreactivity |
| QVQLVESGGGLVQAGGSLRLSCAASGLTFDGNTMGWYRQAPGKERELVAAISFDGGNTYADSVNGRFTISRDNAKNTVYLQMNSLKPEDTAVYYDYWGQGTQVTVSS | low polyreactivity |
| QVQLVESGGGLVQAGGSLRLSCAASGLTFDKIAMGWYRQAPGKERELVAAISTSGGGTYYADSVKGRFTISRDNPKTTVYLQRNSLKPEDTAVYYCAAKHYYYSPYVRYDPPPGYYWGQGTQVTVSS | high polyreactivity |
| QVQLVESGGGLVQAGGSLRLSCAASGLTFDKYVMGWYRQAPGKERELVAAITKGGGSTYYADSVKGRFTISRDNAKNTVYLQMNSLKPEDTAVYYCAVTLPLRYWGQGTQVTVSS | high polyreactivity |
| QVQLVESGGGLVQAGGSLRLSCAASGLTFDPYALGWYRQAPGKERELVATISWSTSSTYYADSVKGRFTISRDNAKNTVYLQMNSLKPEDTAVYYCNAGYIESWFLQWIEYDYWGQGTQVTVSS | high polyreactivity |
| QVQLVESGGGLVQAGGSLRLSCAASGLTFDPYAMGWYRQAPGKEREFVAAINSDDGSTYYADSVKGRFTISRDNAKNTVYLQMNSLKPEDTAVYYCNADLAHFLWYQYDYWGQGTQVTVSS | low polyreactivity |
| QVQLVESGGGLVQAGGSLRLSCAASGLTFDPYAMGWYRQAPGKEREFVATITTSGDSTYYADSVKGRFTISRDNAKNTVYLQMNSLKPEDTAVYYCNTQSRTLGWPLDYWGQGTQVTVSS | high polyreactivity |

| Sequence | polyreactivity (PSR sort gate) |
| --- | --- |
| QVQLVESGGGLVQAGGSLRLSCAASGLTFDVYAMGWYRQAPGKERELVAAISSIGGSTYYADSVKGRFTISRDNAKNTVYLQMNSLKPEDTAVYYCAAAISLYSYDYWGQGTQVTVSS | low polyreactivity |
| QVQLVESGGGLVQAGGSLRLSCAASGLTFDWYAMGWYRQAPGKERELVAAISWNGVSTDYADSVKGRFTISRDNAKNTVYLQMNSLKPEDTAVYYCAADPPWYLYVGFDYWGQGTQVSVSS | high polyreactivity |
| QVQLVESGGGLVQAGGSLRLSCAASGLTFDWYTKGWSRQAPGKERELVATINSGGSTDYADSVKGRFTISRDNAKNTVYLQLNSLKPEDTAVYYCNAEYGYSGVGDDYWGQGTQVTVSS | low polyreactivity |
| QVQLVESGGGLVQAGGSLRLSCAASGLTFDYYAMGWYRQAPGKERELVAAITRRGGGTYYADSVKGRFTISRDNAKNTVYLQMNSLTPEDTAVYYCNADRRSWSALHRYDYWGQGTQVTVSS | high polyreactivity |
| QVQLVESGGGLVQAGGSLRLSCAASGLTFEKYAMGWYRQAPGKERELVAAISQDGGSTYYADSVKGRFTISRDNAKNTVYLQMNSLKPEDTAVYYCAAEDPDSWLPWHLYDYWGQGTQVTVSS | low polyreactivity |
| QVQLVESGGGLVQAGGSLRLSCAASGLTFEVYAMGWYRQAPGKERELVAAISSGGGSTYYADSVKGRFTISRDNAKNTVYLQMNSLKPEDTAVYYCNAVAKLYYWRYDYWGQGTQVTVSS | low polyreactivity |
| QVQLVESGGGLVQAGGSLRLSCAASGLTFEVYAMGWYRQAPGKERELVAAISSGGGSTYYADSVKGRFTISRDNGKNTVYLQMNSLKPEDTAVYYCNADALIAAYKYFPYTYRFNYWGQGTQVTVSS | low polyreactivity |
| QVQLVESGGGLVQAGGSLRLSCAASGLTFEWYAMGWYRQAPGKERELVAAISWNGGSTYYADSVKGRFTISRDNAKNTVYLQMNSLKPEDTAVYYCATSSPRRYYWGQGTQVTVSS | high polyreactivity |
| QVQLVESGGGLVQAGGSLRLSCAASGLTFEWYTMGWYRQAHGKEREMVAVITVSGSSTYYADSVKGRFTISRDNAKNTVYLQMNSLKPEDTAVYYCNADWSFYSYTLYDYWGQGSQVTVSS | low polyreactivity |
| QVQLVESGGGLVQAGGSLRLSCAASGLTFEYYDMGWYRQAPGKERELVAAITGSDDSTYADSVKGRFTISRDNAKNTVYLQMNSLKPEDTAVYYCAASYRAWSGNYWGQGTQVTVSS | high polyreactivity |
| QVQLVESGGGLVQAGGSLRLSCAASGLTFFRNAMGWYREATGKERELVATITSTSSTNYADSVKGRFTISRDNAKNSVYLQMNSLIPEDTAVYYCAARTVGRKAGFDYWGQGTQVTVSS | high polyreactivity |
| QVQLVESGGGLVQAGGSLRLSCAASGLTFGAYAMGWYRQAPGKEREFVAAITYSGGSTNYADSVKGRFTISRDNAKNTVYLQMNSLKPEDTAVYFCNAGYYSPWAFYPYAYWGQGTQVTVSS | high polyreactivity |
| QVQLVESGGGLVQAGGSLRLSCAASGLTFGAYAMGWYRQAPGKERELVAAISDSGGTTYYADSVKGRFTISRDNAKNTVYLQMNSLKPEDTAVYYCAAVKSDVRYRYDYYWGQGTQVTVSS | low polyreactivity |
| QVQLVESGGGLVQAGGSLRLSCAASGLTFGGNAMGWYRPAPGKERELVAAISWSDHTTDYADSVKGRFTISRDKSKNSVYFQMKRLKPEDTAVYYCAARLPFEHVDYWGQGTQVTVSS | low polyreactivity |
| QVQLVESGGGLVQAGGSLRLSCAASGLTFGGNAMGWYRQAPGKERELVAAISWNGGRTYYADSVKGRFTISRDNAKNTVDLQMNSLKPEDTAVYYCNTPVFSKSSRKYYYWGQGTQVTVSS | high polyreactivity |
| QVQLVESGGGLVQAGGSLRLSCAASGLTFGGNARGWYRQAPGNERELVAPISSRGGSTYYADSVKGRFTISRDNAKNTVYLQMNSLKPEDTAVYYCAAGNRYGVRQLYQIVTRYYWGQGTQVTVSS | high polyreactivity |
| QVQLVESGGGLVQAGGSLRLSCAASGLTFGNNAMGWYRQAPGKERELVAAISSDGTTYYADSVKGRFTISRDNAKNTVYLQMNSLKPEDTAVYYCNAAAEISSFDYDYWGQGTQVTVSS | low polyreactivity |
| QVQLVESGGGLVQAGGSLRLSCAASGLTFGPYAMGWYRQAPGKERELVAAITSGGNTNYADSVKGRYTISRDNAKNTVYLQMNSLKPEETAVYYCATSYYLAYRSITPYDYWGQGTQVTVSS | low polyreactivity |
| QVQLVESGGGLVQAGGSLRLSCAASGLTFGRYAMGWYIQATGKERQLVASISQRGGSTYYADSVKGRFTISRDNAKNTVYLQMNSLKPEDTAVYYCNARVRDIYRYSMDSWGQGTQVTVSS | low polyreactivity |
| QVQLVESGGGLVQAGGSLRLSCAASGLTFGSNAMGWYRQAPGKERELVAAITSSGGRTYYADSVKGRFTISRDNAKNTVYLQMNSLKPEVTAVYYCAAVYQILLYFPGRYDYWGQGTQVTVSS | low polyreactivity |
